From the Human Domainome abundance scans (Beltran et al. 2025)
± gives the uncertainty stated by the source.

Experiment: abundance fitness (aPCA) (normalised: wild type 0, dead -1); higher = more abundant; growth selection in yeast, the domain comes from the species named
Settings: Homo sapiens
In the case of “Transcriptional activator Myb S202M, P10242”, the abundance fitness is reported as -0.186 ± 0.12.
Work on “Transcriptional activator Myb R176K, P10242” yielded an abundance fitness of -0.022 ± 0.097.
In the case of “Transcriptional activator Myb Y198N, P10242”, the abundance fitness is reported as 0.067 ± 0.11.
For “Transcriptional activator Myb S202I, P10242”, the abundance fitness was -0.021 ± 0.19.
“Transcriptional activator Myb R191F, P10242” gave an abundance fitness of -0.164 ± 0.21.
For “Transcriptional activator Myb A170W, P10242”, the abundance fitness was -0.811 ± 0.12.
“Transcriptional activator Myb E151S, P10242” showed an abundance fitness of -0.73 ± 0.088.
In the case of “Transcriptional activator Myb K192R, P10242”, the abundance fitness is reported as -0.04 ± 0.064.
With “Transcriptional activator Myb E150A, P10242” the abundance fitness was 0.099 ± 0.075.
Work on “Transcriptional activator Myb L199M, P10242” yielded an abundance fitness of -0.071 ± 0.095.
Substance “Transcriptional activator Myb E168D, P10242” has an abundance fitness of -0.133 ± 0.09.
Work on “Transcriptional activator Myb K182I, P10242” yielded an abundance fitness of -0.181 ± 0.14.
In the case of “Transcriptional activator Myb S146F, P10242”, the abundance fitness is reported as -0.021 ± 0.19.
With “Transcriptional activator Myb L172F, P10242” the abundance fitness was -0.35 ± 0.24.
With “Transcriptional activator Myb R176C, P10242” the abundance fitness was -0.148 ± 0.12.
With “Transcriptional activator Myb H184G, P10242” the abundance fitness was -0.855 ± 0.054.
With “Transcriptional activator Myb H184F, P10242” the abundance fitness was -0.488 ± 0.075.
With “Transcriptional activator Myb R153Y, P10242” the abundance fitness was -0.084 ± 0.11.
Substance “Transcriptional activator Myb R190A, P10242” has an abundance fitness of -0.023 ± 0.07.
Work on “Transcriptional activator Myb I169C, P10242” yielded an abundance fitness of -0.521 ± 0.14.
For “Transcriptional activator Myb W166V, P10242”, the abundance fitness was -0.615 ± 0.075.
“Transcriptional activator Myb R190S, P10242” showed an abundance fitness of -0.074 ± 0.065.
“Transcriptional activator Myb E150R, P10242” gave an abundance fitness of 0 ± 0.061.
With “Transcriptional activator Myb E168G, P10242” the abundance fitness was -0.668 ± 0.07.
Substance “Transcriptional activator Myb T177V, P10242” has an abundance fitness of -0.371 ± 0.062.
“Transcriptional activator Myb I154Y, P10242” gave an abundance fitness of -0.65 ± 0.13.
Substance “Transcriptional activator Myb R176G, P10242” has an abundance fitness of -0.728 ± 0.062.
In the case of “Transcriptional activator Myb T177K, P10242”, the abundance fitness is reported as -0.204 ± 0.092.
“Transcriptional activator Myb E151I, P10242” gave an abundance fitness of -0.49 ± 0.14.
In the case of “Transcriptional activator Myb R176Q, P10242”, the abundance fitness is reported as -0.513 ± 0.16.
Substance “Transcriptional activator Myb T188M, P10242” has an abundance fitness of 0.035 ± 0.08.
Substance “Transcriptional activator Myb G163P, P10242” has an abundance fitness of -0.19 ± 0.1.
Substance “Transcriptional activator Myb T188P, P10242” has an abundance fitness of -0.268 ± 0.099.
In the case of “Transcriptional activator Myb S203C, P10242”, the abundance fitness is reported as -0.112 ± 0.094.
Substance “Transcriptional activator Myb N183Q, P10242” has an abundance fitness of -0.094 ± 0.13.
With “Transcriptional activator Myb K204I, P10242” the abundance fitness was -0.055 ± 0.16.
Work on “Transcriptional activator Myb N179H, P10242” yielded an abundance fitness of -0.04 ± 0.094.
Substance “Transcriptional activator Myb W185M, P10242” has an abundance fitness of -0.327 ± 0.13.
“Transcriptional activator Myb K182P, P10242” gave an abundance fitness of -0.678 ± 0.15.
With “Transcriptional activator Myb T145D, P10242” the abundance fitness was 0.144 ± 0.15.
“Transcriptional activator Myb E150M, P10242” gave an abundance fitness of -0.097 ± 0.086.
“Transcriptional activator Myb N183T, P10242” gave an abundance fitness of 0.101 ± 0.086.
“Transcriptional activator Myb T145Y, P10242” gave an abundance fitness of -0.114 ± 0.23.
For “Transcriptional activator Myb N186I, P10242”, the abundance fitness was 0.027 ± 0.1.
Work on “Transcriptional activator Myb L199I, P10242” yielded an abundance fitness of -0.056 ± 0.1.
With “Transcriptional activator Myb N183Y, P10242” the abundance fitness was -0.343 ± 0.1.
“Transcriptional activator Myb Y198V, P10242” showed an abundance fitness of -0.042 ± 0.069.
“Transcriptional activator Myb K143R, P10242” showed an abundance fitness of -0.228 ± 0.12.
Substance “Transcriptional activator Myb E151M, P10242” has an abundance fitness of -0.624 ± 0.12.
“Transcriptional activator Myb R153D, P10242” showed an abundance fitness of -0.25 ± 0.095.
For “Transcriptional activator Myb N183E, P10242”, the abundance fitness was 0.011 ± 0.098.
“Transcriptional activator Myb R191S, P10242” showed an abundance fitness of -0.052 ± 0.076.
With “Transcriptional activator Myb E149N, P10242” the abundance fitness was -0.526 ± 0.35.
Work on “Transcriptional activator Myb E151H, P10242” yielded an abundance fitness of -0.57 ± 0.13.
“Transcriptional activator Myb L199K, P10242” gave an abundance fitness of 0.025 ± 0.083.
With “Transcriptional activator Myb H184C, P10242” the abundance fitness was -0.799 ± 0.084.
“Transcriptional activator Myb E168F, P10242” showed an abundance fitness of -0.574 ± 0.12.
For “Transcriptional activator Myb A180Y, P10242”, the abundance fitness was -0.803 ± 0.43.
Substance “Transcriptional activator Myb E201P, P10242” has an abundance fitness of -0.221 ± 0.13.
“Transcriptional activator Myb K171D, P10242” gave an abundance fitness of -0.234 ± 0.14.
Work on “Transcriptional activator Myb R190H, P10242” yielded an abundance fitness of -0.189 ± 0.17.
With “Transcriptional activator Myb S203D, P10242” the abundance fitness was -0.079 ± 0.15.
In the case of “Transcriptional activator Myb Y156I, P10242”, the abundance fitness is reported as -0.061 ± 0.13.
For “Transcriptional activator Myb I155C, P10242”, the abundance fitness was -0.346 ± 0.095.
Substance “Transcriptional activator Myb Y198E, P10242” has an abundance fitness of 0.057 ± 0.099.
“Transcriptional activator Myb R153F, P10242” gave an abundance fitness of -0.068 ± 0.094.
“Transcriptional activator Myb K171W, P10242” showed an abundance fitness of -0.598 ± 0.091.
“Transcriptional activator Myb I169E, P10242” showed an abundance fitness of -0.641 ± 0.12.
For “Transcriptional activator Myb I154Q, P10242”, the abundance fitness was -0.216 ± 0.11.
“Transcriptional activator Myb G175F, P10242” showed an abundance fitness of -0.308 ± 0.12.
For “Transcriptional activator Myb A167S, P10242”, the abundance fitness was -0.095 ± 0.09.
Substance “Transcriptional activator Myb K171V, P10242” has an abundance fitness of -0.19 ± 0.088.
Work on “Transcriptional activator Myb L199E, P10242” yielded an abundance fitness of -0.005 ± 0.081.
Substance “Transcriptional activator Myb N183A, P10242” has an abundance fitness of 0.037 ± 0.094.
Substance “Transcriptional activator Myb H184S, P10242” has an abundance fitness of -0.854 ± 0.067.
Substance “Transcriptional activator Myb A170G, P10242” has an abundance fitness of -0.229 ± 0.058.
Substance “Transcriptional activator Myb E151N, P10242” has an abundance fitness of -0.674 ± 0.12.
For “Transcriptional activator Myb I169L, P10242”, the abundance fitness was -0.427 ± 0.086.
Substance “Transcriptional activator Myb I181K, P10242” has an abundance fitness of -1.34 ± 0.35.
Work on “Transcriptional activator Myb T148Q, P10242” yielded an abundance fitness of -0.437 ± 0.055.
Substance “Transcriptional activator Myb E196W, P10242” has an abundance fitness of -0.151 ± 0.067.
Substance “Transcriptional activator Myb Q200C, P10242” has an abundance fitness of -0.18 ± 0.11.
In the case of “Transcriptional activator Myb Y156Q, P10242”, the abundance fitness is reported as -0.014 ± 0.073.
“Transcriptional activator Myb K192N, P10242” gave an abundance fitness of -0.162 ± 0.43.
“Transcriptional activator Myb N183P, P10242” gave an abundance fitness of -1.09 ± 0.14.
Substance “Transcriptional activator Myb T177I, P10242” has an abundance fitness of -0.477 ± 0.093.
Work on “Transcriptional activator Myb I155Y, P10242” yielded an abundance fitness of -1.21 ± 0.21.
In the case of “Transcriptional activator Myb L199N, P10242”, the abundance fitness is reported as 0.043 ± 0.14.
“Transcriptional activator Myb I169P, P10242” showed an abundance fitness of -0.734 ± 0.12.
For “Transcriptional activator Myb I169Q, P10242”, the abundance fitness was -0.677 ± 0.16.
With “Transcriptional activator Myb Y156T, P10242” the abundance fitness was -0.09 ± 0.072.
With “Transcriptional activator Myb W147C, P10242” the abundance fitness was -0.638 ± 0.042.
Work on “Transcriptional activator Myb G175M, P10242” yielded an abundance fitness of -0.283 ± 0.098.
Substance “Transcriptional activator Myb Q200N, P10242” has an abundance fitness of 0.004 ± 0.11.
Work on “Transcriptional activator Myb P174S, P10242” yielded an abundance fitness of -0.338 ± 0.088.
In the case of “Transcriptional activator Myb T177L, P10242”, the abundance fitness is reported as -0.42 ± 0.068.
For “Transcriptional activator Myb I169T, P10242”, the abundance fitness was -0.567 ± 0.11.
In the case of “Transcriptional activator Myb M189D, P10242”, the abundance fitness is reported as -0.384 ± 0.094.
“Transcriptional activator Myb I181D, P10242” gave an abundance fitness of -1 ± 0.17.
Substance “Transcriptional activator Myb K144Q, P10242” has an abundance fitness of -0.015 ± 0.1.
With “Transcriptional activator Myb E196K, P10242” the abundance fitness was -0.064 ± 0.1.
For “Transcriptional activator Myb R176A, P10242”, the abundance fitness was -0.217 ± 0.065.
“Transcriptional activator Myb K204L, P10242” gave an abundance fitness of -0.07 ± 0.18.
Work on “Transcriptional activator Myb N186M, P10242” yielded an abundance fitness of -0.007 ± 0.11.
With “Transcriptional activator Myb S187K, P10242” the abundance fitness was -0.058 ± 0.1.
Substance “Transcriptional activator Myb A180R, P10242” has an abundance fitness of -0.327 ± 0.051.
In the case of “Transcriptional activator Myb S203P, P10242”, the abundance fitness is reported as -0.139 ± 0.12.
“Transcriptional activator Myb A170I, P10242” gave an abundance fitness of -1.45 ± 0.42.
